Measured values published in IntAct's records for PubMed 18342605.

B1: Serine/threonine-protein phosphatase PP1-2 (Saccharomyces cerevisiae), P32598 (parent)
chain: MDSQPVDVDNIIDRLLEVRGSKPGQQVDLEENEIRYLCSKARSIFIKQPILLELEAPIKICGDIHGQYYDLLRLFEYGGFPPESNYLFLGDYVDRGKQSLETICLLLAYKIKYPENFFILRGNHECASINRIYGFYDECKRRYNIKLWKTFTDCFNCLPIAAIIDEKIFCMHGGLSPDLNSMEQIRRVMRPTDIPDVGLLCDLLWSDPDKDIVGWSENDRGVSFTFGPDVVNRFLQKQDMELICRAHQVVEDGYEFFSKRQLVTLFSAPNYCGEFDNAGAMMSVDESLLCSFQILKPAQKSLPRQAGGRKKK
B2: RNA end formation protein 2 (Saccharomyces cerevisiae), P42073 (parent)
chain: MSAPVPQLVNISHALQASTIQQIRLDMVDFNKDCKLSSIQLARIDKYIDSLQAALNQFTKDNLHIERKEKNVTEADIQLYSGLKSMYLDYLNQLIKLKHEKQHHSTPPIANDVSLDFFVNQLPKFSPEERKNYIDNLILNKNSHNRLSKMDGLVDAVINLCVLDTSVAENVRSYMKLLDTLGFQKGSNSTGTKANLKKKLASSKAKIKDSEKEKEKEKDKSKVKMKTKLKPSPLLNNDDKNSSPSPTASTSSMKKLKSGLFNKNEAKSTESLPTSSKKKLSFSKYLNKDDADMTKLGTKRSIDVDFKVNPEASTVASNIISSSTSGSSTTTVATPASSEEPLKKKTKISVQDSNVQSILRNGKPKKARISSIKFLDDSQLIKVYGDDLPNQGLQVSPTQLKKILKPFKEGEPKEIILFEDMSIKLKPLDLMFLKNTNSDDYMDISETKGGPIHCETRTPLIYRKNFNHFNPDLNKRPPREPIEFDLNGNTNSTPTIAKAFGKNSLLLRKDRGGLPYKHVPIVKRNKYPPRPVH
B3: Serine/threonine-protein phosphatase PP1-2 (Saccharomyces cerevisiae), P32598 (parent)
chain: B1 chain
partner: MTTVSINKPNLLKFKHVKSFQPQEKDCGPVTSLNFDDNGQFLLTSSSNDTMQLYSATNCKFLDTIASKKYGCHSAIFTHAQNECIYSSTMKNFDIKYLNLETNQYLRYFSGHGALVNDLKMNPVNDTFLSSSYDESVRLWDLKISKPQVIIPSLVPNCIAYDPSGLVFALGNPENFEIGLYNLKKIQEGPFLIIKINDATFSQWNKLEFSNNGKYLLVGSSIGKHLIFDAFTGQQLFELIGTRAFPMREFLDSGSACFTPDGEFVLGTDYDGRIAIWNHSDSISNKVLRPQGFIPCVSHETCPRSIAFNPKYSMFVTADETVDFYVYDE
B4: Serine/threonine-protein phosphatase PP1-2 (Saccharomyces cerevisiae), P32598 (parent)
chain: B1 chain
partner: B2 chain

Variants of: B1
Settings: with sen1_yeast SEN1, Q00416
Sequence of sen1_yeast SEN1, Q00416 (Q00416 whole entry): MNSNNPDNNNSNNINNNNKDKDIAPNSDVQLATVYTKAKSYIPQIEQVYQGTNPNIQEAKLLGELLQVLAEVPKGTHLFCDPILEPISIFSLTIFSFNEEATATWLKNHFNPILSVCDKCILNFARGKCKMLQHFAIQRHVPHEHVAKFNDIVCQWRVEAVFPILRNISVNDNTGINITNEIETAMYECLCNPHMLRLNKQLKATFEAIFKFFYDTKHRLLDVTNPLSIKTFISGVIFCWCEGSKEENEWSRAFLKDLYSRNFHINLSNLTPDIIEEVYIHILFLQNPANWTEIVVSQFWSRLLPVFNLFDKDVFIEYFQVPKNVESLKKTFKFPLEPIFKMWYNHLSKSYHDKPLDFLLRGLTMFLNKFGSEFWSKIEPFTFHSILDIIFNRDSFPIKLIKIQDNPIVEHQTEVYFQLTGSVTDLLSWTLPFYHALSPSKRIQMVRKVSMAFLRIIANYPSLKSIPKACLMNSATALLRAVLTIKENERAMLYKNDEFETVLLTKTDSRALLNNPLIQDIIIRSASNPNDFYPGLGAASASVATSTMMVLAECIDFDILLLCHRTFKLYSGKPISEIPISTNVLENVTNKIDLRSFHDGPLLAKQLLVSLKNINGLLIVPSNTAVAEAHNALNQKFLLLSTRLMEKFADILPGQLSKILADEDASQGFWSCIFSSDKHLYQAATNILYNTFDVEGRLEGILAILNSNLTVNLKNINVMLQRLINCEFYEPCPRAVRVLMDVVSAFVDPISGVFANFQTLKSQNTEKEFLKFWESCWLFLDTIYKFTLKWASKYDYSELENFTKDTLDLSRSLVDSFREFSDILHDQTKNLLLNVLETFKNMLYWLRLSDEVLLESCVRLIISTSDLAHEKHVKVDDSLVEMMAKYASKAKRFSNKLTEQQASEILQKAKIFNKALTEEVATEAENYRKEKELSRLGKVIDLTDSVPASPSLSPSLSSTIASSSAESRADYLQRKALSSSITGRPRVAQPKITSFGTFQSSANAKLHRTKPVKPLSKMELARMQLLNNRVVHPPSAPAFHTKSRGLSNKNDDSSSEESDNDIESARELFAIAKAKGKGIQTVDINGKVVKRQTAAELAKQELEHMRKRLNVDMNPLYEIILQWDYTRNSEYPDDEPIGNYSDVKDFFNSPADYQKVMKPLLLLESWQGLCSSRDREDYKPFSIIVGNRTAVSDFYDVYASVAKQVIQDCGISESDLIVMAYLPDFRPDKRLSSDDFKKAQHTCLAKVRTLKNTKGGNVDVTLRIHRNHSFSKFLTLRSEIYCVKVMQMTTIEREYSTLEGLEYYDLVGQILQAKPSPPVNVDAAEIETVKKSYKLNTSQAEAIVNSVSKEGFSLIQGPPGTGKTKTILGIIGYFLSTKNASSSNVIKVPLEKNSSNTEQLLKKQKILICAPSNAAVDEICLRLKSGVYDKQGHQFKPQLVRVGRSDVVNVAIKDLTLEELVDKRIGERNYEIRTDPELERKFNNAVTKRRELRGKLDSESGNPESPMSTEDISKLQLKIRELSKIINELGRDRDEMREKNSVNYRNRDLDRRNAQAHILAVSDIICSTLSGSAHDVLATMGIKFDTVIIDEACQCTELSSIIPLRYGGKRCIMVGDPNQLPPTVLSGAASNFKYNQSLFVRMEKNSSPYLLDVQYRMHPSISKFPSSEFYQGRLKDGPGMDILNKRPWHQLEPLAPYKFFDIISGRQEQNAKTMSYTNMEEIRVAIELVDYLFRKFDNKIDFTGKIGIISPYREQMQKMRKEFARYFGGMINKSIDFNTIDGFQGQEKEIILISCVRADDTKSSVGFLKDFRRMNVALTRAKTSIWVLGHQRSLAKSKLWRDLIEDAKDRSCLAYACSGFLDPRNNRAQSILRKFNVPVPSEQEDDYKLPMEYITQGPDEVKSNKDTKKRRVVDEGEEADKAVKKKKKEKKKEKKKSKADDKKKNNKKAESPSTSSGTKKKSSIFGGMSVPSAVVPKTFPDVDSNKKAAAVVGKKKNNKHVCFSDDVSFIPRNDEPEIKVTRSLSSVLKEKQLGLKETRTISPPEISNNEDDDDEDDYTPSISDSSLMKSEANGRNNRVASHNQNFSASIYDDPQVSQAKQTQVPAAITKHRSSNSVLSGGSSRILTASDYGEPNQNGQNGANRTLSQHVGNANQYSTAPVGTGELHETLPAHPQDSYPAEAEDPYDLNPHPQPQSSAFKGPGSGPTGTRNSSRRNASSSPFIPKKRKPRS

effect of a mutation on the interaction | Variant
decreasing interaction strength | MDSQPVDVDNIIDRLLEVRGSKPGQQVDLEENEIRYLCSKARSIFIKQPILLELEAPIKICGDIHGQYYDLLRLFEYGGFPPESNYLFLGDYVDRGKQSLETICLLLAYKIKYPENFFILRGNHECASINRIYGFYDECKRRYNIKLWKTFTDCFNCLPIAAIIDEKIFCMHGGLSPDLNSMEQIRRVMRPTDIPDVGLLCDLLWSDPDKDIVGWSENDRGVSFTFGPDVVNRFLQKQDMELICRAHQVVEDGYEFFSKRQLVTLFSAPNYCGEFDNAGAMMSVDESLLCSAQILKPAQKSLPRQAGGRKKK [F292A]
disrupting interaction strength | MDSQPVDVDNIIDRLLEVRGSKPGQQVDLEENEIRYLCSKARSIFIKQPILLELEAPIKICGDIHGQYYDLLRLFEYGGFPPESNYLFLGDYVDRGKQSLETICLLLAYKIKYPENFFILRGNHECASINRIYGFYDECKRRYNIKLWKTFTDCFNCLPIAAIIDEKIFCMHGGLSPDLNSMEQIRRVMRPTDIPDVGLLCDLLWSDPDKDIVGWSENDRGVSFTFGPDVVNRFLQKQDMELICRAHQVVEDGYEAFSKRQLVTLFSAPNYCGEFDNAGAMMSVDESLLCSFQILKPAQKSLPRQAGGRKKK [F256A]
disrupting interaction strength | MDSQPVDVDNIIDRLLEVRGSKPGQQVDLEENEIRYLCSKARSIFIKQPILLELEAPIKICGDIHGQYYDLLRLFEYGGFPPESNYLFLGDYVDRGKQSLETICLLLAYKIKYPENFFILRGNHECASINRIYGFYDECKRRYNIKLWKTFTDCFNCLPIAAIIDEKIFCMHGGLSPDLNSMEQIRRVMRPTDIPDVGLLCDLLWSDPDKDIVGWSENDRGVSFTFGPDVVNRFLQKQDMELICRAHQVVEDGYEAFSKRQLVTLFSAPNYCGEFDNAGAMMSVDESLLCSAQILKPAQKSLPRQAGGRKKK [F256A;F292A]

Variants of: B2
Settings: with pp12_yeast GLC7, P32598

effect of a mutation on the interaction | Variant
disrupting interaction strength | MSAPVPQLVNISHALQASTIQQIRLDMVDFNKDCKLSSIQLARIDKYIDSLQAALNQFTKDNLHIERKEKNVTEADIQLYSGLKSMYLDYLNQLIKLKHEKQHHSTPPIANDVSLDFFVNQLPKFSPEERKNYIDNLILNKNSHNRLSKMDGLVDAVINLCVLDTSVAENVRSYMKLLDTLGFQKGSNSTGTKANLKKKLASSKAKIKDSEKEKEKEKDKSKVKMKTKLKPSPLLNNDDKNSSPSPTASTSSMKKLKSGLFNKNEAKSTESLPTSSKKKLSFSKYLNKDDADMTKLGTKRSIDVDFKVNPEASTVASNIISSSTSGSSTTTVATPASSEEPLKKKTKISVQDSNVQSILRNGKPKKARISSIKALDDSQLIKVYGDDLPNQGLQVSPTQLKKILKPFKEGEPKEIILFEDMSIKLKPLDLMFLKNTNSDDYMDISETKGGPIHCETRTPLIYRKNFNHFNPDLNKRPPREPIEFDLNGNTNSTPTIAKAFGKNSLLLRKDRGGLPYKHVPIVKRNKYPPRPVH [F374A]

Variants of: B3
Settings: with swd2_yeast SWD2, P36104

effect of a mutation on the interaction | Variant
disrupting interaction strength | MDSQPVDVDNIIDRLLEVRGSKPGQQVDLEENEIRYLCSKARSIFIKQPILLELEAPIKICGDIHGQYYDLLRLFEYGGFPPESNYLFLGDYVDRGKQSLETICLLLAYKIKYPENFFILRGNHECASINRIYGFYDECKRRYNIKLWKTFTDCFNCLPIAAIIDEKIFCMHGGLSPDLNSMEQIRRVMRPTDIPDVGLLCDLLWSDPDKDIVGWSENDRGVSFTFGPDVVNRFLQKQDMELICRAHQVVEDGYEAFSKRQLVTLFSAPNYCGEFDNAGAMMSVDESLLCSFQILKPAQKSLPRQAGGRKKK [F256A]
decreasing interaction strength | MDSQPVDVDNIIDRLLEVRGSKPGQQVDLEENEIRYLCSKARSIFIKQPILLELEAPIKICGDIHGQYYDLLRLFEYGGFPPESNYLFLGDYVDRGKQSLETICLLLAYKIKYPENFFILRGNHECASINRIYGFYDECKRRYNIKLWKTFTDCFNCLPIAAIIDEKIFCMHGGLSPDLNSMEQIRRVMRPTDIPDVGLLCDLLWSDPDKDIVGWSENDRGVSFTFGPDVVNRFLQKQDMELICRAHQVVEDGYEFFSKRQLVTLFSAPNYCGEFDNAGAMMSVDESLLCSAQILKPAQKSLPRQAGGRKKK [F292A]
disrupting interaction strength | MDSQPVDVDNIIDRLLEVRGSKPGQQVDLEENEIRYLCSKARSIFIKQPILLELEAPIKICGDIHGQYYDLLRLFEYGGFPPESNYLFLGDYVDRGKQSLETICLLLAYKIKYPENFFILRGNHECASINRIYGFYDECKRRYNIKLWKTFTDCFNCLPIAAIIDEKIFCMHGGLSPDLNSMEQIRRVMRPTDIPDVGLLCDLLWSDPDKDIVGWSENDRGVSFTFGPDVVNRFLQKQDMELICRAHQVVEDGYEAFSKRQLVTLFSAPNYCGEFDNAGAMMSVDESLLCSAQILKPAQKSLPRQAGGRKKK [F256A;F292A]

Variants of: B4
Settings: with ref2_yeast REF2, P42073

effect of a mutation on the interaction | Variant
decreasing interaction strength | MDSQPVDVDNIIDRLLEVRGSKPGQQVDLEENEIRYLCSKARSIFIKQPILLELEAPIKICGDIHGQYYDLLRLFEYGGFPPESNYLFLGDYVDRGKQSLETICLLLAYKIKYPENFFILRGNHECASINRIYGFYDECKRRYNIKLWKTFTDCFNCLPIAAIIDEKIFCMHGGLSPDLNSMEQIRRVMRPTDIPDVGLLCDLLWSDPDKDIVGWSENDRGVSFTFGPDVVNRFLQKQDMELICRAHQVVEDGYEFFSKRQLVTLFSAPNYCGEFDNAGAMMSVDESLLCSAQILKPAQKSLPRQAGGRKKK [F292A]
disrupting interaction strength | MDSQPVDVDNIIDRLLEVRGSKPGQQVDLEENEIRYLCSKARSIFIKQPILLELEAPIKICGDIHGQYYDLLRLFEYGGFPPESNYLFLGDYVDRGKQSLETICLLLAYKIKYPENFFILRGNHECASINRIYGFYDECKRRYNIKLWKTFTDCFNCLPIAAIIDEKIFCMHGGLSPDLNSMEQIRRVMRPTDIPDVGLLCDLLWSDPDKDIVGWSENDRGVSFTFGPDVVNRFLQKQDMELICRAHQVVEDGYEAFSKRQLVTLFSAPNYCGEFDNAGAMMSVDESLLCSAQILKPAQKSLPRQAGGRKKK [F256A;F292A]
disrupting interaction strength | MDSQPVDVDNIIDRLLEVRGSKPGQQVDLEENEIRYLCSKARSIFIKQPILLELEAPIKICGDIHGQYYDLLRLFEYGGFPPESNYLFLGDYVDRGKQSLETICLLLAYKIKYPENFFILRGNHECASINRIYGFYDECKRRYNIKLWKTFTDCFNCLPIAAIIDEKIFCMHGGLSPDLNSMEQIRRVMRPTDIPDVGLLCDLLWSDPDKDIVGWSENDRGVSFTFGPDVVNRFLQKQDMELICRAHQVVEDGYEAFSKRQLVTLFSAPNYCGEFDNAGAMMSVDESLLCSFQILKPAQKSLPRQAGGRKKK [F256A]
